Laboratory results reported in the RNAGym collection of RNA variant scans (doi:10.1073/pnas.2313332121).
Variants at the floor of the assay were thinned out.

B1: TPR 5TU (parent)
chain: GGAUCUUCUCGAUCUAACAAAAAAGACAAAUCUGCCACAAAGCUUGAGAGCAUCUUCGGAUGCAGAGGCGGCAGCCUUCGGUGGCGCGAUAGCGCCAACGUUCUCAACUAUGACACGCAAAACGCGUGCUCCGUUGAAUGGAGUUUAUCAUG

Variants of: B1
Assay: polymerase ribozyme fitness, log enrichment relative to wild type (log ratio); higher = more active; in vitro selection for triplet polymerase activity
How it was run: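 Each subunit of a heterodimeric triplet polymerase ribozyme was represented by a PCR-built, transcribed mutant library that underwent triplicate single-round in vitro selection with frozen incubation at −7 °C. Extended constructs were recovered by gel excision, streptavidin-bead capture and RT-PCR, and Illumina sequencing of input and output libraries kept genotypes with ≥10 input reads and ≥1 read per output. Fitness is the logarithm of genotype enrichment relative to wild-type enrichment, from inverse-variance-weighted replicate averages, with a logarithm base of 2.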

Variant	polymerase ribozyme fitness (log ratio)
A41G G50C C93G C103U C123A U127C	≤ -4.2
U56C G83A C87G C123U G141A	≤ -4.2
A47U G81A C125G A150C	≤ -4.2
C8A C27U C76U	≤ -4.2
C85G G141A	-2.85
A137G G141C	-2.74
U33G G58C A120G G133C	-3.81
C54U C95U A98G A142U	-1.61
C57G G59A C118U C125A G136C	-3.19
A49U A52G C96U C99G	≤ -4.2
G62A G67A C72U C75G C93G C95U A120G	≤ -4.2
G86U A115G	-2.39
C38G C75G G84C C103A	≤ -4.2
C8U A20C A49G U53A C95A A106G C118G	≤ -4.2
U31G G50U U56G	-1.97
A89U A107U G133A A142G	≤ -4.2
U56A G58U A119G C131A	-2.04
G48A C93G	-3.69
A26C G59U A89C A113G C132G G141U	≤ -4.2
G58C G59A C85U G133C	-1.29
A39G U55C U56A C116U U139G U144G	-2.27

Variant	polymerase ribozyme fitness (log ratio)
A28C G58C	≤ -4.2
A23G C32G C57U G74A C93U U101G A137U	≤ -4.2
A24G G124U	-4.06
A19C A24U C57G C75U G92U C118A	-0.536
A19U U144A	-0.138
A12G U15G C69A C75U A106G A120G	-2.52
C38A A91G	-3.39
C10U U15A G50C C76U C85A	≤ -4.2
A73C G92C	-3.64
U44A G50C G84U G88A U139C G152A	≤ -4.2
A49U C69U	-1.86
A26U U56A U101G A115G	-3.42
C14A U15A G50U A66G U101G C114U C118G G133A A137G	≤ -4.2
C35A U45A U101A	-4.13
C63U C79G A91G A107G	≤ -4.2
C14G C35U G42C A52U C75A C79G G92C C118U G140C	-4.09
U15G G59U U135G	-3.96
A12C A16G A39U A91C G141C U148G	≤ -4.2
C93G C118U C123U	-3.29
G58U A60C C105G U148G	≤ -4.2
A22C C27G A66U U145C	≤ -4.2

Variant	polymerase ribozyme fitness (log ratio)
C103G A120U U146G	-1.37
C36U C54A G68A G71A C95G A115U A122G	≤ -4.2
U4C G58A G83A C85U	-1.97
A12G A17U A49G A60G A91G	-2.9
A3U U4C A52C G67A G83U A122U A137U U148A	≤ -4.2
A20G G83A C129G	-3.83
C32G A41C C75U	≤ -4.2
C5U U9G A12C U33G G58A G88A A91G G94A A113C A121C	≤ -4.2
C87G G92C C105U	0.371
G58A C87A	≤ -4.2
C32A A37C C95U	≤ -4.2
U53A C76U	-1.36
G11A C14U U61A G80C C85G C96U A98G C108A	≤ -4.2
C96U C114U A150U	-3.94
C87G A113C A138U U146C	≤ -4.2
U13A A98U U148G	≤ -4.2
A3G U82G C95U U102G	-3.62
U6G U13G A41U A52C G133U A138G U148G	≤ -4.2
A73G C96U	-0.103
A26C C51U A66G U77A C149G	≤ -4.2
C57U G59C C93A U135G	≤ -4.2

Variant	polymerase ribozyme fitness (log ratio)
C10G G11C A12G G70U C85G U101C G128A	≤ -4.2
G50C A52G U77A G128U A142U	≤ -4.2
U78G C85G G140A	≤ -4.2
A26G C27G A40G C57U C85U C118U	-3.9
A73G	0.127
C57U C95G A120G G143A	-2.18
A40C C85G C108G	≤ -4.2
C32U G59A	-1.99
A40C U45A A66U G83A G88U A97C A122U A138U	≤ -4.2
G59U G86U	-3.85
C14U A40C C54U C63A C95U A106C	≤ -4.2
U53A G83A C103U C132U	-3.25
C93U C116U A122U A150C	-3.57
A19G A29G C38A U53A C76U G86U C99U	≤ -4.2
A26C C57U C85G G92U	≤ -4.2
C5A C57A A119U A137G U146G	-2.37
U130C	1.27
G83U A120U G141C	-0.804
U33G A41C C43U G50A G152U	-4.07
A28G A41C G42U A66G C96G G133U U144G	-4.13
